Legend:
[1] = target: T1, human Rrn3 (human, UniProt Q9NYV6 1-651, limits assumed); test: yeast two-hybrid
T1 construct: Two-hybrid fusion partner not described; also called hRrn3

[2] = target: T2, mouse Rrn3 (mouse, UniProt B2RS91 1-656, limits assumed); test: yeast two-hybrid
T2 construct: Two-hybrid fusion partner not described; also called mRrn3
T2 sequence (B2RS91 whole entry, the tested form may be a part): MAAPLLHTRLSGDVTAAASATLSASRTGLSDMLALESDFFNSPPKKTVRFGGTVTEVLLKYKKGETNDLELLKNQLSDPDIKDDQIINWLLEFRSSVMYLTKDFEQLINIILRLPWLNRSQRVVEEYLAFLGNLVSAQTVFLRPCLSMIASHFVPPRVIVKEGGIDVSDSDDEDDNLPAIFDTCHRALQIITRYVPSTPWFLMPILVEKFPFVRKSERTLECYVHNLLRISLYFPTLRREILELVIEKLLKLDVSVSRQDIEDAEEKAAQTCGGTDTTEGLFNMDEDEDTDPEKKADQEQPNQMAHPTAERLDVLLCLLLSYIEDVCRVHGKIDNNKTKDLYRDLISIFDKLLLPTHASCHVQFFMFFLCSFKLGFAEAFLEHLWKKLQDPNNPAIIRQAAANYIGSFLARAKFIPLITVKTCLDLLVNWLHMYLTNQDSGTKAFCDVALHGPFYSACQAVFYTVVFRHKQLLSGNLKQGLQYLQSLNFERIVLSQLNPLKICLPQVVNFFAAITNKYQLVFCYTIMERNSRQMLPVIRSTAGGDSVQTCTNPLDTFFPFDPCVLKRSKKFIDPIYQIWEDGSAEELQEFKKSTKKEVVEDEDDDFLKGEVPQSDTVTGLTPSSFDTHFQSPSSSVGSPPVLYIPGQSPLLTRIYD

T1 sequence (Q9NYV6 whole entry, the tested form may be a part): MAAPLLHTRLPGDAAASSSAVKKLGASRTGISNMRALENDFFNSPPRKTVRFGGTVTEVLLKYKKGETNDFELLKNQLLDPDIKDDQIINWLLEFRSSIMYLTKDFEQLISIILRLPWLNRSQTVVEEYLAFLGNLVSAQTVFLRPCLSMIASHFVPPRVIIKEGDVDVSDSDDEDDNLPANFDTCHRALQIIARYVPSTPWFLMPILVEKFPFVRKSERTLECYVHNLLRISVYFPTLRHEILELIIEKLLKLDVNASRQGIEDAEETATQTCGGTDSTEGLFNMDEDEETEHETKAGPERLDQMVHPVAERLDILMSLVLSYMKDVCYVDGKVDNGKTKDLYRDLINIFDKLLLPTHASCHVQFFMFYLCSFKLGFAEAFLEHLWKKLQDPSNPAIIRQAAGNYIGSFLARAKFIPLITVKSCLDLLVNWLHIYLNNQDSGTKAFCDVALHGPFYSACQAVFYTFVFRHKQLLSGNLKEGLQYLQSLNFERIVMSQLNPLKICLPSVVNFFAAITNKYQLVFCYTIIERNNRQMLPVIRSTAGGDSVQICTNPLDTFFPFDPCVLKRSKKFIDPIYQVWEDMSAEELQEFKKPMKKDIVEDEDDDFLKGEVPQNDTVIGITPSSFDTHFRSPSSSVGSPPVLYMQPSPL

binding result [1]: binds
binding result [2]: binds
B1: mouse Rpa43 (43 kDa subunit of RNA polymerase I), wild type (other, UniProt Q78WZ7 1-330, looked up)
chain: MAAGSVESQRSQAASERPVAGQAGVLPCLELPSYAAACALVGSRYSCLVAAPHRRHIALSPRYLSRKRTGIREQLDAELLRYSESLLGVPIAYDNIRVVGELGDIYDDQGHIHLNIEADFVIFCPEPGQTLMGTVNKVSSSHIGCLVHGCFNASIPKPEQMSYEEWQTLEIHVGDELEFDVFRLDSDSAGVFCIRGKLSTTSLQLKHSAVSEDVAETVVEEVVEKTPKKKKKKKDKDTDTCGTVDSVTEVADVTDVTPQEETDIPCSDNVNDFFEEEPKKKKKKKKRHQEDQDPIFQASDSSGYQSDHNKKKKKRKHSEEANFESPKKRQ
notes: also called mRPA43; wild type Rpa43
